# Measurements as given in the Human Domainome abundance scans (Beltran et al. 2025).
# ± gives the uncertainty stated by the source.
# B1: SWI/SNF complex subunit SMARCC2, residues 599 to 641; numbered along this chain, Q8TAQ2 (parent)
# chain: REWTEQETLLLLEALEMYKDDWNKVSEHVGSRTQDECILHFLR
# Variants of: B1
# Test: abundance fitness (aPCA) (normalised: wild type 0, dead -1); higher = more abundant; growth selection in yeast, the domain comes from the species named
# Details: Homo sapiens
row,Variant,abundance fitness
1,REWTEQETLLLLEALHMYKDDWNKVSEHVGSRTQDECILHFLR [E16H],-0.294 ± 0.29
2,REWTEQETLLLLEALGMYKDDWNKVSEHVGSRTQDECILHFLR [E16G],-0.152 ± 0.075
3,REWTEQETLLLLEALKMYKDDWNKVSEHVGSRTQDECILHFLR [E16K],-0.059 ± 0.13
4,REWTEQETLLLLEALRMYKDDWNKVSEHVGSRTQDECILHFLR [E16R],0.062 ± 0.06
5,REWTEQETLLLLEALTMYKDDWNKVSEHVGSRTQDECILHFLR [E16T],-0.091 ± 0.084
6,REWTEQETLLLLEALFMYKDDWNKVSEHVGSRTQDECILHFLR [E16F],-0.372 ± 0.15
7,REWTEQETLLLLEALIMYKDDWNKVSEHVGSRTQDECILHFLR [E16I],-0.759 ± 0.15
8,REWTEQETLLLLEALMMYKDDWNKVSEHVGSRTQDECILHFLR [E16M],-0.439 ± 0.1
9,REWTEQETLLLLEALSMYKDDWNKVSEHVGSRTQDECILHFLR [E16S],-0.301 ± 0.084
10,REWTEQETLLLLEALPMYKDDWNKVSEHVGSRTQDECILHFLR [E16P],-0.018 ± 0.091
11,REWTEQETLLLLEALLMYKDDWNKVSEHVGSRTQDECILHFLR [E16L],-0.698 ± 0.11
12,REWTEQETLLLLEALVMYKDDWNKVSEHVGSRTQDECILHFLR [E16V],-0.501 ± 0.096
13,REWTEQETLLLLEALYMYKDDWNKVSEHVGSRTQDECILHFLR [E16Y],-0.54 ± 0.11
14,REWTEQETLLLLEALQMYKDDWNKVSEHVGSRTQDECILHFLR [E16Q],-0.186 ± 0.1
15,REWTEQETLLLLEALEGYKDDWNKVSEHVGSRTQDECILHFLR [M17G],-0.154 ± 0.072
16,REWTEQETLLLLEALERYKDDWNKVSEHVGSRTQDECILHFLR [M17R],0.118 ± 0.061
17,REWTEQETLLLLEALEAYKDDWNKVSEHVGSRTQDECILHFLR [M17A],-0.224 ± 0.071
18,REWTEQETLLLLEALEHYKDDWNKVSEHVGSRTQDECILHFLR [M17H],-0.348 ± 0.19
19,REWTEQETLLLLEALENYKDDWNKVSEHVGSRTQDECILHFLR [M17N],0.027 ± 0.12
20,REWTEQETLLLLEALESYKDDWNKVSEHVGSRTQDECILHFLR [M17S],-0.167 ± 0.086

row,Variant,abundance fitness
1,REWTEQETLLLLEALECYKDDWNKVSEHVGSRTQDECILHFLR [M17C],-0.283 ± 0.17
2,REWTEQETLLLLEALEKYKDDWNKVSEHVGSRTQDECILHFLR [M17K],0.077 ± 0.084
3,REWTEQETLLLLEALEWYKDDWNKVSEHVGSRTQDECILHFLR [M17W],-0.118 ± 0.098
4,REWTEQETLLLLEALEDYKDDWNKVSEHVGSRTQDECILHFLR [M17D],-0.035 ± 0.1
5,REWTEQETLLLLEALEVYKDDWNKVSEHVGSRTQDECILHFLR [M17V],-0.017 ± 0.079
6,REWTEQETLLLLEALETYKDDWNKVSEHVGSRTQDECILHFLR [M17T],-0.054 ± 0.12
7,REWTEQETLLLLEALEQYKDDWNKVSEHVGSRTQDECILHFLR [M17Q],0.013 ± 0.072
8,REWTEQETLLLLEALEYYKDDWNKVSEHVGSRTQDECILHFLR [M17Y],-0.084 ± 0.11
9,REWTEQETLLLLEALEPYKDDWNKVSEHVGSRTQDECILHFLR [M17P],-0.501 ± 0.16
10,REWTEQETLLLLEALELYKDDWNKVSEHVGSRTQDECILHFLR [M17L],0.052 ± 0.074
11,REWTEQETLLLLEALEMPKDDWNKVSEHVGSRTQDECILHFLR [Y18P],-0.637 ± 0.091
12,REWTEQETLLLLEALEMIKDDWNKVSEHVGSRTQDECILHFLR [Y18I],-0.152 ± 0.15
13,REWTEQETLLLLEALEMRKDDWNKVSEHVGSRTQDECILHFLR [Y18R],-0.626 ± 0.084
14,REWTEQETLLLLEALEMLKDDWNKVSEHVGSRTQDECILHFLR [Y18L],-0.731 ± 0.14
15,REWTEQETLLLLEALEMVKDDWNKVSEHVGSRTQDECILHFLR [Y18V],-0.419 ± 0.092
16,REWTEQETLLLLEALEMWKDDWNKVSEHVGSRTQDECILHFLR [Y18W],-0.093 ± 0.1
17,REWTEQETLLLLEALEMTKDDWNKVSEHVGSRTQDECILHFLR [Y18T],-0.383 ± 0.067
18,REWTEQETLLLLEALEMDKDDWNKVSEHVGSRTQDECILHFLR [Y18D],-0.283 ± 0.11
19,REWTEQETLLLLEALEMQKDDWNKVSEHVGSRTQDECILHFLR [Y18Q],-0.478 ± 0.11
20,REWTEQETLLLLEALEMSKDDWNKVSEHVGSRTQDECILHFLR [Y18S],-0.286 ± 0.071

row,Variant,abundance fitness
1,REWTEQETLLLLEALEMFKDDWNKVSEHVGSRTQDECILHFLR [Y18F],-0.417 ± 0.17
2,REWTEQETLLLLEALEMNKDDWNKVSEHVGSRTQDECILHFLR [Y18N],-0.003 ± 0.12
3,REWTEQETLLLLEALEMCKDDWNKVSEHVGSRTQDECILHFLR [Y18C],-0.501 ± 0.11
4,REWTEQETLLLLEALEMMKDDWNKVSEHVGSRTQDECILHFLR [Y18M],-0.48 ± 0.15
5,REWTEQETLLLLEALEMAKDDWNKVSEHVGSRTQDECILHFLR [Y18A],-0.375 ± 0.1
6,REWTEQETLLLLEALEMGKDDWNKVSEHVGSRTQDECILHFLR [Y18G],-0.163 ± 0.073
7,REWTEQETLLLLEALEMHKDDWNKVSEHVGSRTQDECILHFLR [Y18H],0.106 ± 0.1
8,REWTEQETLLLLEATEMYKDDWNKVSEHVGSRTQDECILHFLR [L15T],0.301 ± 0.095
9,REWTEQETLLLLEAYEMYKDDWNKVSEHVGSRTQDECILHFLR [L15Y],0.278 ± 0.081
10,REWTEQETLLLLEAKEMYKDDWNKVSEHVGSRTQDECILHFLR [L15K],0.586 ± 0.096
11,REWTEQETLLLLEAGEMYKDDWNKVSEHVGSRTQDECILHFLR [L15G],-0.067 ± 0.076
12,REWTEQETLLLLEAAEMYKDDWNKVSEHVGSRTQDECILHFLR [L15A],0.409 ± 0.064
13,REWTEQETLLLLEACEMYKDDWNKVSEHVGSRTQDECILHFLR [L15C],0.087 ± 0.1
14,REWTEQETLLLLEAHEMYKDDWNKVSEHVGSRTQDECILHFLR [L15H],0.551 ± 0.098
15,REWTEQETLLLLEAMEMYKDDWNKVSEHVGSRTQDECILHFLR [L15M],0.436 ± 0.093
16,REWTEQETLLLLEAWEMYKDDWNKVSEHVGSRTQDECILHFLR [L15W],0.04 ± 0.073
17,REWTEQETLLLLEADEMYKDDWNKVSEHVGSRTQDECILHFLR [L15D],0.232 ± 0.26
18,REWTEQETLLLLEAEEMYKDDWNKVSEHVGSRTQDECILHFLR [L15E],0.241 ± 0.065
19,REWTEQETLLLLEANEMYKDDWNKVSEHVGSRTQDECILHFLR [L15N],-0.017 ± 0.13
